Here are results for one molecule from PMC3828167 (PLoS Pathogens, 2013).

In this experiment the target is Legionella pneumophila RalF Sec7 domain (LpRalF^Sec7, residues 1-201) (Legionella pneumophila, UniProt Q8RT31 1-201). The experiment in a line: SEC. The note with it: both partners purified.

B1: Human Arf1 lacking its N-terminal alpha-helix (Δ17Arf1) (domain or fragment)
chain: not shown
notes: also called Arf1-GDP; nucleotide-free Arf1
As for B1, the binding result is recorded as “binds”.
